Measured values: patent US7524668 (ELAN PHARMACEUTICALS, dated 2009)
Non-standard residues stand in square brackets, D forms with d. No end group written: not given here. Sta = CC(C)C[C@H](N)[C@@H](O)CC(=O)O

What was measured:
[1] = target: T1, CHO cell expressed recombinant human beta secretase proteolytically cleaved with HIV protease (human, UniProt P56817 61-453); experiment: affinity chromatography on peptide-coupled resin
T1 construct: N-terminus at V40 after cleavage of the F39-V40 bond; also called HIV-1 protease treated beta secretase; HIV protease treated CHO produced beta secretase
T1 sequence (P56817 other isoform, or with tags, fused parts or gaps limits assumed): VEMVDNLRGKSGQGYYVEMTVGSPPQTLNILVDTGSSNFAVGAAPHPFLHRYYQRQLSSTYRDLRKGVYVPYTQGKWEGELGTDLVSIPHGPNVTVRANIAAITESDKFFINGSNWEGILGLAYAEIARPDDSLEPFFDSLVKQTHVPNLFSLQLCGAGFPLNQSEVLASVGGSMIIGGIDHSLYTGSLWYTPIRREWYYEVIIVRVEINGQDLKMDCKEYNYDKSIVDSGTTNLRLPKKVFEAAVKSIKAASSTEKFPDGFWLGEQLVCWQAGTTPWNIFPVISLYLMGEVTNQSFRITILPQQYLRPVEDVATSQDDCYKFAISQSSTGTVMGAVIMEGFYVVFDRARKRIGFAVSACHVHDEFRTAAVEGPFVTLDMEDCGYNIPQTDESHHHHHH

[2] = target: T2, pET11a-T7.Tag-Gly-Ser-Met-(A-GV...QTDES) E. coli expressed recombinant human BACE (human, UniProt P56817 14-453); experiment: affinity chromatography on peptide-coupled resin, bound at pH 4.5, eluted at pH 8.5
T2 construct: The construct carries an N-terminal T7 tag; also called pET11a-BACE; beta secretase
T2 sequence (P56817 other isoform, or with tags, fused parts or gaps limits assumed): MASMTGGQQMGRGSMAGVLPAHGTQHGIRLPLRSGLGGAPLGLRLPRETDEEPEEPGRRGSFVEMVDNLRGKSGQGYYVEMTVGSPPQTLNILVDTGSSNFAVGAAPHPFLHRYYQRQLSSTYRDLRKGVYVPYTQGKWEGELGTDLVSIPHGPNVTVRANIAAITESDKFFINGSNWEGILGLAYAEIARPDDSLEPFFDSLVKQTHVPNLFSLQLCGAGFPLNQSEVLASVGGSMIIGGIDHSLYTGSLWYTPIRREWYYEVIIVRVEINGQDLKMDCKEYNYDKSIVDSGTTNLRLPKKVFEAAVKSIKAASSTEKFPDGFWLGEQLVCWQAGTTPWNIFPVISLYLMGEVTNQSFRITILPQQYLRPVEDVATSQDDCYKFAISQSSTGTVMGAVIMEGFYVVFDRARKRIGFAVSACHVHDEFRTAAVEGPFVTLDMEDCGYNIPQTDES

[3] = target: T3, pQE80L-Met-Arg-Gly-Ser-(His)6-Gly-Ser-Ile-Glu-Thr-Asp-(TQH...QTDES) E. coli expressed recombinant human BACE (human, UniProt P56817 22-453); experiment: as above
T3 construct: N-terminal His6 tag is part of the construct; also called pQE80L-BACE; pQE-80-BACE
T3 sequence (P56817 other isoform, or with tags, fused parts or gaps limits assumed): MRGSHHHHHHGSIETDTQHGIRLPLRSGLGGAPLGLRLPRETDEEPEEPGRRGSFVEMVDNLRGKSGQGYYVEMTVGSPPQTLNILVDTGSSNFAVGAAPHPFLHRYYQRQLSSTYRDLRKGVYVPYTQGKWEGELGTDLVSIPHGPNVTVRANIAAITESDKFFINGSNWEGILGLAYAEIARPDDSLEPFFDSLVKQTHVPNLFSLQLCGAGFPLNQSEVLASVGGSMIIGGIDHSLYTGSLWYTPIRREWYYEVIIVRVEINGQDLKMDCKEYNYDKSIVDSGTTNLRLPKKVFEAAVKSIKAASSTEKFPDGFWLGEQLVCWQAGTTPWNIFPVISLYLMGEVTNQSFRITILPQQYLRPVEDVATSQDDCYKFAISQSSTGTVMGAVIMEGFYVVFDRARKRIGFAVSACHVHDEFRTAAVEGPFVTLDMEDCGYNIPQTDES

[4] = target: T4, pQE70-Met-Arg-Gly-Ser-Phe-Val-Glu-...Thr-Asp-Glu-Ser-Arg-Ser-(His)6 E. coli expressed recombinant human BACE (human, UniProt P56817 57-453); experiment: affinity chromatography on peptide-coupled resin, bound at acidic pH, eluted at pH 8.5
T4 construct: C-terminal His6 tag is part of the construct; also called pQE70-BACE
T4 sequence (P56817 other isoform, or with tags, fused parts or gaps limits assumed): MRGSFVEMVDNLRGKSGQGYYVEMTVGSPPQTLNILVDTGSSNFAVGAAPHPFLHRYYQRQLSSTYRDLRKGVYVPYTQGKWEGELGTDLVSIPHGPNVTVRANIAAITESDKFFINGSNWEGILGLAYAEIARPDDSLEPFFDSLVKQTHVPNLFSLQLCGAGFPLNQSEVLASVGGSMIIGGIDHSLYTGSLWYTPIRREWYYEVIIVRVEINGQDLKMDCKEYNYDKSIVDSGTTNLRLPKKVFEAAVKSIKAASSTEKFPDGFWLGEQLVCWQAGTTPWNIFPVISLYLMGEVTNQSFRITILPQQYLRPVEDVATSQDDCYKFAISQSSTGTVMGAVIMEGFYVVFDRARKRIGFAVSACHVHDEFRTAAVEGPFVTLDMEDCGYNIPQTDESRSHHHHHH
Method: Prior to purification, the pH of the refolded protein was lowered from about 10 to 8.5 with HCl. The solution was loaded onto three 50 ml Q-Sepharose columns (Pharmacia Biotech XK 50). The columns were pre-equilibrated in 0.4 M Urea, 10 mM AMPSO, pH 8.5. After refolded protein was loaded onto the columns, they were washed with 500 ml of 0.4 M Urea, 10 mM TRIS, pH 8.2. The columns were eluted with 180-245 ml of 0.75 M NaCl in 0.4 M Urea 10 mM TRIS buffer, pH 8.2. The eluates were then dialyzed versus 20 mM HEPES, pH 8.0. The samples were then removed from dialysis and dropped into 1 M NaMES, pH 5.7 (0.1 M final concentration). After centrifugation (20 Kxg) the supernatant was dropped into 1 M Na-acetate, 1 M NaMES, pH 5.0 (0.2 M Na-acetate, 0.28 M Na-MES was the final concentration). […] This solution was then applied to a 15 ml affinity column equilibrated at the same pH. The column was washed with 6 column volumes of 20 mM sodium acetate buffer pH 4.5, 150 mM NaCl. BACE was eluted at pH 8.5 using about 50 ml of 0.1 M borate buffer. […] Purified pQE70-BACE was dialyzed into 100 mM NaBorate pH 8.5.

Measured: binding result

SEVN[Sta]VAEFRGGC (also: coupled to Sulfolink resin via Cys) [synthetic peptide Ser-Glu-Val-Asn-Sta-Val-Ala-Glu-Phe-Arg-Gly-Gly-Cys (where Sta=statine)]
binds: all assays above
